{"source": "paper PMC6008586", "about": "“Analysis of transition state mimicry by tight binding aminothiazoline inhibitors provides insight into catalysis by human O-GlcNAcase” (Chemical Science, 2016)", "proteins": {"B1": {"name": "hOGA (Homo sapiens) (protein)", "chain": "MVQKESQATLEERESELSSNPAASAGASLEPPAAPAPGEDNPAGAGGAAVAGAAGGARRFLCGVVEGFYGRPWVMEQRKELFRRLQKWELNTYLYAPKDDYKHRMFWREMYSVEEAEQLMTLISAAREYEIEFIYAISPGLDITFSNPKEVSTLKRKLDQVSQFGCRSFALLFDDIDHNMCAADKEVFSSFAHAQVSITNEIYQYLGEPETFLFCPTEYCGTFCYPNVSQSPYLRTVGEKLLPGIEVLWTGPKVVSKEIPVESIEEVSKIIKRAPVIWDNIHANDYDQKRLFLGPYKGRSTELIPRLKGVLTNPNCEFEANYVAIHTLATWYKSNMNGVRKDVVMTDSEDSTVSIQIKLENEGSDEDIETDVLYSPQMALKLALTEWLQEFGVPHQYSSRQVAHSGAKASVVDGTPLVAAPSLNATTVVTTVYQEPIMSQGAALSGEPTTLTKEEEKKQPDEEPMDMVVEKQEETDHKNDNQILSEIVEAKMAEELKPMDTDKESIAESKSPEMSMQEDCISDIAPMQTDEQTNKEQFVPGPNEKPLYTAEPVTLEDLQLLADLFYLPYEHGPKGAQMLREFQWLRANSSVVSVNCKGKDSEKIEEWRSRAAKFEEMCGLVMGMFTRLSNCANRTILYDMYSYVWDIKSIMSMVKSFVQWLGCRSHSSAQFLIGDQEPWAFRGGLAGEFQRLLPIDGANDLFFQPPPLTPTSKVYTIRPYFPKDEASVYKICREMYDDGVGLPFQSQPDLIGDKLVGGLLSLSLDYCFVLEDEDGICGYALGTVDVTPFIKKCKISWIPFMQEKYTKPNGDKELSEAEKIMLSFHEEQEVLPETFLANFPSLIKMDIHKKVTDPSVAKSMMACLLSSLKANGSRGAFCEVRPDDKRILEFYSKLGCFEIAKMEGFPKDVVILGRSL", "notes": "made in house"}}, "test_in_all_cases": "Kinetic analysis of hOGA-catalysed hydrolysis of fluorogenic substrates", "format_in_all_cases": "biochemical, human", "key": {"[1]": {"substrate": "CCCNC(=O)N[C@H]1[C@H](Oc2ccc3c(C)cc(=O)oc3c2)O[C@H](CO)[C@@H](O)[C@@H]1O", "conditions": "other: substrate of hOGA, pH 7.4 PBS, 2.5% DMF, 37.0 °C", "source_text": "(§1) Given the greater than 100-fold increase in potency we observe for the 2′-aminothiazoline inhibitors over their thiazoline counterparts and their structural resemblance to the oxazoline intermediate found along the reaction coordinate of hOGA, we wanted to assess whether incorporation of the 2′-amino group benefitted binding through serendipitous interactions, or whether the presence of the charge included in this class of inhibitors also made them TS analogues. We therefore turned to using the Bartlett LFER approach. […] We started from 4-methylumbelliferyl 2-amino-2-deoxy-β-D-glucopyranoside hydrochloride (16) as a common intermediate.[54] Per-O-acetylated urea substrates 17a–e were prepared by reacting 16 with the appropriate alkylisocyanate in the presence of triethylamine, followed by Zemplen de-O-acetylation. With this series of substrates (18a–e) in hand we determined the kcat/Km values governing their hOGA catalyzed hydrolysis (ESI Table S1 ^†). […] In contrast, we find no correlation between log Ki values for the inhibitors and log Km values for the series of substrates (Fig. 6B). […]\n(§2) Biological evaluation: Gene expression and protein purification. hOGA was expressed and purified according to the previously described procedure by Macauley et al.[5] hOGA was dialyzed twice against PBS buffer after purification and its concentration determined using the Nanodrop2000. Human β-hexosaminidase was obtained from Micheal Tropak at the Hospital for Sick Children in Toronto, without further purification.\n(§3) Kinetic analysis of hOGA. All assays were carried out in 96 well plates (Thermoscientific, FloroNunc, lot # 139825) in PBS pH 7.4 buffer (0.03% BSA) in triplicate at 37°C for 20 minutes. A continuous assay procedure was performed in which the reactions were initiated by the addition of 4-MUGlcNAc substrate (50 µL or 100 µL via a multi-channel […]\n(§4) The excitation and emission were 350 and 445 nm, respectively. The amount of fluorogenic substrate liberated was quantitatively assessed by using a standard curve for 4-methylumbelliferone under identical buffer conditions. A total of 6-8 inhibitor concentrations were tested, […]\n(§5) The hOGA concentrations in the assays ranged from 0.8 nM to 20 nM, depending on whether the Ki being determined was through classic Michaelis-Menten methods or the Morrison Ki fit. For full Ki […]\n(§6) For the Morrison Ki analyses, only one substrate concentration was used (at the Km) since the method of inhibition was already known from analysis using the Line-weaver Burke plots. The representative hOGA Ki plots are summarized in Supplemental Figures S1, S2 and S3. Kinetic analysis of substrates 18a-e were performed in triplicate using pH 7.4 PBS buffer (0.03% BSA) containing 2.5% DMF, with varying enzyme concentrations. The Michaelis-Menten curves for substrates 18a-e with hOGA are summarized in Supplemental Figure S6 and the kinetic parameters are described in Supplemental Table S1. […]\n(§7) # 139825) at pH 4.25 (50 mM citrate, 100 mM NaCl, 0.03% BSA) at 37°C in triplicate for 20 minutes. Enzymatic reactions were triggered by addition of substrate (20 µL or 15 µL) in a total volume of 45 or 40 µL. Reactions were quenched by the addition of a 4-fold excess (160 or 180 µL) of quenching buffer (200 mM glycine, pH 10.75) in order to […]"}, "[2]": {"substrate": "CCCCNC(=O)N[C@H]1[C@H](Oc2ccc3c(C)cc(=O)oc3c2)O[C@H](CO)[C@@H](O)[C@@H]1O", "conditions": "other: substrate of hOGA, pH 7.4 PBS, 2.5% DMF, 37.0 °C", "source_text": "as §1, §2, §3, §4, §5, §6, §7"}, "[3]": {"substrate": "CCNC(=O)N[C@H]1[C@H](Oc2ccc3c(C)cc(=O)oc3c2)O[C@H](CO)[C@@H](O)[C@@H]1O", "conditions": "other: substrate of hOGA, pH 7.4 PBS, 2.5% DMF, 37.0 °C", "source_text": "as §1, §2, §3, §4, §5, §6, §7"}, "[4]": {"substrate": "CNC(=O)N[C@H]1[C@H](Oc2ccc3c(C)cc(=O)oc3c2)O[C@H](CO)[C@@H](O)[C@@H]1O", "conditions": "other: estimated by non-linear regression, saturation of hOGA not observed, pH 7.4 PBS, 2.5% DMF, 37.0 °C", "source_text": "as §1, §2, §3, §4, §5, §6, §7"}, "[5]": {"substrate": "Cc1cc(=O)oc2cc(O[C@@H]3O[C@H](CO)[C@@H](O)[C@H](O)[C@H]3NC(N)=O)ccc12", "conditions": "other: estimated by non-linear regression, saturation of hOGA not observed, pH 7.4 PBS, 2.5% DMF, 37.0 °C", "source_text": "as §1, §2, §3, §4, §5, §6, §7"}}, "data": [{"protein": "B1", "values": [{"measurement": "Km", "setting": "[1]", "value": "120 ± 11", "unit": "µM"}, {"measurement": "Km", "setting": "[2]", "value": "30 ± 3", "unit": "µM"}, {"measurement": "Km", "setting": "[3]", "value": "85 ± 20", "unit": "µM"}, {"measurement": "Km", "setting": "[4]", "value": "1825 ± 542", "unit": "µM"}, {"measurement": "Km", "setting": "[5]", "value": "1265 ± 259", "unit": "µM"}]}]}
